Results on one protein are retold here after paper PMC2799296 (Biochemistry, 2009).

The data set deals with the molecule itself. Put plainly: cryo-EM structure.

B1: bacteriophage Qβ coat protein, wild-type (133 amino acids, lacking the A1 extension) (natural protein)
chain: MAKLETVTLGNIGKDGKQTLVLNPRGVNPTNGVASLSQAGAVPALEKRVTVSVSQPSRNRKNYKVQVKIQNPTACTANGSCDPSVTRQAYADVTFSFTQYSTDEERAFVRTELAALLASPLLIDAIDQLNPAY
In the case of B1, the binding result was “binds”.
